Molecular target: the molecule itself
Experiment: cryo-EM structure; 7.4 uM KpFtsZ, 14.9 uM KpZapA (2x molar excess), 0.6 mM GMPCPP, 17 mM HEPES pH 7.5, 8.6 mM NaCl, 60 mM KCl, 3 mM MgCl2, on ice 15 min; helical refinement to 2.73 A; same data re-analysed with the focus on ZapA (3.89 and 4.27 A maps, 2D classes)

Protein | binding result | stoichiometry N
K. pneumoniae FtsZ (natural protein, UniProt W9BCK7 1-383, looked up, polymerised into protofilaments with GMPCPP, GTP or GMPPNP in the assays; also called KpFtsZ; wild-type FtsZ) MFEPMELTNDAVIKVIGVGGGGGNAVEHMVRERIEGVEFFAVNTDAQALRKTAVGQTIQIGSGITKGLGAGANPEVGRNAADEDREALRAALDGADMVFIAAGMGGGTGTGAAPVVAEVAKDLGILTVAVVTKPFNFEGKKRMAFAEQGITELSKHVDSLITIPNDKLLKVLGRGISLLDAFGAANDVLKGAVQGIAELITRPGLMNVDFADVRTVMSEMGYAMMGSGVASGEDRAEEAAEMAISSPLLEDIDLSGARGVLVNITAGFDLRLDEFETVGNTIRAFASDNATVVIGTSLDPDMNDELRVTVVATGIGMDKRPEITLVTNKQVQQPVMDRYQQHGMSPLTQEQKPAAKVVNDNTPQTAKEPDYLDIPAFLRKQAD | binds | 
K. pneumoniae ZapA (natural protein, ZapA of Klebsiella pneumoniae; synthetic gene codon-optimised for E. coli in pColdI-TEV; Tetramer in the structures; also called KpZapA; source: E. coli, purified (HisTrap, TEV cleavage, second HisTrap, Superdex200 SEC); not shown: His6, N-terminal, cleaved) MSAQPVDLQIFGRSLRVNCPPEQRDALNQAAEDLNQRLQDLKERTRVTNTEQLVFIAALNISYELTQEKAKTRDYASSMEQRIRMLQQTIEQALLEQGRISE |  | 4

Reference: article PMC12216130, “Structural basis for the interaction between the bacterial cell division proteins FtsZ and ZapA” (Nature Communications, 2025)
